B3: ERN1-Tyk2(C)-HA (other)
chain: IFGSTSTVTLPETLLFVSTLDGSLHAVSKRTGSIKWTLKEDPVLQVPTHVEEPAFLPDPNDGSLYTLGSKNNEGLTKLPFTIPELVQASPCRSSDGILYMGKKQDIWYVIDLLTGEKQQTLSSAFADSLCPSTSLLYLGRTEYTITMYDTKTRELRWNATYFDYAASLPEDDVDYKMSHFVSNGDGLVVTVDSESGDVLWIQNYASPVVAFYVWQREGLRKVMHINVAVETLRYLTFMSGEVGRITKWKYPFPKETEAKSKLTPTLYVGKYSTSLYASPSMVHEGVAVVPRGSTLPLLEGPQTDGVTIGDKGECVITPSTDVKFDPGLKSKNKLNYLRNYWLLIGHHETPLSASTKMLERFPNNLPKHRENVIPADSEKKSFEEVINLVDQTSENAPTTVSRDVEEKPAHAPARPEAPVDSMLKDMATIILSTFLLIGWVAFIITYPLSMHQQQQLQHQQFQKELEKIQLLQQQQQQLPFHPPGDTAQDGELLDTSGPYSESSGTSSPSTSPRASNHSLCSGSSASKAGSSPSLEQDDGDEETSVVIVGKISFCPKDVLGHGAEGTIVYRGMFDNRDVAVKRILPECFSFADREVQLLRESDEHPNVIRYFCTEKDRQFQYIAIELCAATLQEYVEQKDFAHLGLEPITLLQQTTSGLAHLHSLNIVHRDLKPHNILISMPNAHGKIKAMISDFGLCKKLAVGRHSFSRRSGVPGTEGWIAPEMLSEDCKENPTYTVDIFSAGCVFYYVISEGSHPFGKSLQRQANILLGACSLDCLHPEKHEDVIARELIEKMIAMDPQKRPSAKHVLKHPFFWSLEKQLQFFQDVSDRIEKESLDGPIVKQLERGGRAVVKMDWRENITVPLQTDLRKFRTYKGGSVRDLLRAMRNKKHHYRELPAEVRETLGSLPDDFVCYFTSRFPHLLAHTYRAMELCSHERLFQPYYFHEPPEPQPPVTPDALAAAGGSITQLSHLGQGTRTNVYEGRLRVEGSGDPEEGKMDDEDPLVPGRDRGQELRVVLKVLDPSHHDIALAFYETASLMSQVSHTHLAFVHGVCVRGPENSMVTEYVEHGPLDVWLRRERGHVPMAWKMVVAQQLASALSYLENKNLVHGNVCGRNILLARLGLAEGTSPFIKLSDPGVGLGALSREERVERIPWLAPECLPGGANSLSTAMDKWGFGATLLEICFDGEAPLQSRSPSEKEHFYQRQHRLPEPSCPQLATLTSQCLTYEPTQRPSFRTILRDLTRVQPHNLADVLTVNRDSPAVGPTTFHKRYLKKIRDLGEGHFGKVSLYCYDPTNDGTGEMVAVKALKADCGPQHRSGWKQEIDILRTLYHEHIIKYKGCCEDQGEKSLQLVMEYVPLGSLRDYLPRHSIGLAQLLLFAQQICEGMAYLHAHDYIHRDLAARNVLLDNDRLVKIGDFGLAKAVPEGHEYYRVREDGDSPVFWYAPECLKEYKFYYASDVWSFGVTLYELLTHCDSSQSPPTKFLELIGIAQGQMTVLRLTELLERGERLPRPDKCPCEVYHLMKNCWETEASFRPTFENLIPILKTVHEKYQGQAPSVFSVCLEYPYDVPDYA
notes: Fusion protein expressed in transfected HEK293-T cells; also called ERN1-Tyk2-HA; ERN1-Tyk2(C) fusion construct

Experiments:
HA-Tyk2(C)-RTp66 = target: T1, HA-Tyk2(C)-RTp66 (HIV-1); assay: luciferase reporter interaction assay in HEK293-T cells
T1 construct: also called pSVSport-HA-Tyk2(C)-RTp66; RTp66 kinase fusion construct

HA-Tyk2(C)-SERT = target: T2, HA-Tyk2(C)-SERT (human); assay: as above
T2 construct: Fusion protein expressed in transfected HEK293-T cells; also called pSVSport-HA-Tyk2(C)-SERT; SERT kinase fusion construct

ERN1(D123P)-Tyk2(C)-HA = target: T3, ERN1(D123P)-Tyk2(C)-HA (human); assay: luciferase reporter interaction assay in HEK293-T cells, vehicle or 1 µg/ml tunicamycin
T3 construct: Mutation in the luminal domain of ERN1; also called pcDNA5/FRT/TO-ERN1(D123P)-Tyk2(C)-HA; ERN1(D123P)-Tyk2(K)-HA

ERN1(K599A)-Tyk2(C)-HA = target: T4, ERN1(K599A)-Tyk2(C)-HA (human); assay: as above
T4 construct: also called pcDNA5/FRT/TO-ERN1(K599A)-Tyk2(C)-HA

[1] = target: T5, unfused gp130 receptor fragment (pMG1) (human, UniProt P40189 760-918); assay: luciferase reporter interaction assay in HEK293-T cells, tunicamycin 0-0.5-1-2 µg/ml
T5 construct: Negative control prey; also called empty prey
T5 sequence: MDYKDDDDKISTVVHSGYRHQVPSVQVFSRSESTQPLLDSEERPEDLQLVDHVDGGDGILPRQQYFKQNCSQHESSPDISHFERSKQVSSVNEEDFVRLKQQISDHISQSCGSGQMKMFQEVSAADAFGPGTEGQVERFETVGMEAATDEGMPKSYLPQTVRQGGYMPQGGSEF

ERN1-Tyk2(C)-HA = target: B3; assay: luciferase reporter interaction assay in HEK293-T cells, tunicamycin 0-0.04-0.2-1-5 µg/ml

B1: flag tag-gp130-VAMP1 (other)
chain: MDYKDDDDKISTVVHSGYRHQVPSVQVFSRSESTQPLLDSEERPEDLQLVDHVDGGDGILPRQQYFKQNCSQHESSPDISHFERSKQVSSVNEEDFVRLKQQISDHISQSCGSGQMKMFQEVSAADAFGPGTEGQVERFETVGMEAATDEGMPKSYLPQTVRQGGYMPQGGSELSTSLYKKVGMSAPAQPPAEGTEGTAPGGGPPGPPPNMTSNRRLQQTQAQVEEVVDIIRVNVDKVLERDQKLSELDDRADALQAGASQFESSAAKLKRKYWWKNCKMMIMLGAICAIIVVVIVSKYRCPTFLYKVV
notes: also called pMG1-VAMP1; VAMP1 gp130 fusion construct
Q: Does B1 bind (HA-Tyk2(C)-RTp66)?
A: Result: no binding

Q: Does B1 bind (HA-Tyk2(C)-SERT)?
A: Result: binds

B2: flag tag-ERN1-gp130 (other)
chain: IFGSTSTVTLPETLLFVSTLDGSLHAVSKRTGSIKWTLKEDPVLQVPTHVEEPAFLPDPNDGSLYTLGSKNNEGLTKLPFTIPELVQASPCRSSDGILYMGKKQDIWYVIDLLTGEKQQTLSSAFADSLCPSTSLLYLGRTEYTITMYDTKTRELRWNATYFDYAASLPEDDVDYKMSHFVSNGDGLVVTVDSESGDVLWIQNYASPVVAFYVWQREGLRKVMHINVAVETLRYLTFMSGEVGRITKWKYPFPKETEAKSKLTPTLYVGKYSTSLYASPSMVHEGVAVVPRGSTLPLLEGPQTDGVTIGDKGECVITPSTDVKFDPGLKSKNKLNYLRNYWLLIGHHETPLSASTKMLERFPNNLPKHRENVIPADSEKKSFEEVINLVDQTSENAPTTVSRDVEEKPAHAPARPEAPVDSMLKDMATIILSTFLLIGWVAFIITYPLSMHQQQQLQHQQFQKELEKIQLLQQQQQQLPFHPPGDTAQDGELLDTSGPYSESSGTSSPSTSPRASNHSLCSGSSASKAGSSPSLEQDDGDEETSVVIVGKISFCPKDVLGHGAEGTIVYRGMFDNRDVAVKRILPECFSFADREVQLLRESDEHPNVIRYFCTEKDRQFQYIAIELCAATLQEYVEQKDFAHLGLEPITLLQQTTSGLAHLHSLNIVHRDLKPHNILISMPNAHGKIKAMISDFGLCKKLAVGRHSFSRRSGVPGTEGWIAPEMLSEDCKENPTYTVDIFSAGCVFYYVISEGSHPFGKSLQRQANILLGACSLDCLHPEKHEDVIARELIEKMIAMDPQKRPSAKHVLKHPFFWSLEKQLQFFQDVSDRIEKESLDGPIVKQLERGGRAVVKMDWRENITVPLQTDLRKFRTYKGGSVRDLLRAMRNKKHHYRELPAEVRETLGSLPDDFVCYFTSRFPHLLAHTYRAMELCSHERLFQPYYFHEPPEPQPPVTPDALSRGSGGSGGSTVVHSGYRHQVPSVQVFSRSESTQPLLDSEERPEDLQLVDHVDGGDGILPRQQYFKQNCSQHESSPDISHFERSKQVSSVNEEDFVRLKQQISDHISQSCGSGQMKMFQEVSAADAFGPGTEGQVERFETVGMEAATDEGMPKSYLPQTVRQGGYMPQGGSELSTSLYKKAGYLPQTVRQGGYMPQ
notes: Fusion protein expressed in transfected HEK293-T cells; also called ERN1-gp130 fusion construct; pMG2C-ERN1
Q: Does B2 bind (ERN1(D123P)-Tyk2(C)-HA)?
A: Result: no binding

Q: Does B2 bind (ERN1(K599A)-Tyk2(C)-HA)?
A: Result: no binding

Q: Does B3 bind [1]?
A: Result: no binding

B4: flag-tag-ERN1cyt-gp130 (other)
chain: MDYKDDDDKISEFFCPKDVLGHGAEGTIVYRGMFDNRDVAVKRILPECFSFADREVQLLRESDEHPNVIRYFCTEKDRQFQYIAIELCAATLQEYVEQKDFAHLGLEPITLLQQTTSGLAHLHSLNIVHRDLKPHNILISMPNAHGKIKAMISDFGLCKKLAVGRHSFSRRSGVPGTEGWIAPEMLSEDCKENPTYTVDIFSAGCVFYYVISEGSHPFGKSLQRQANILLGACSLDCLHPEKHEDVIARELIEKMIAMDPQKRPSAKHVLKHPFFWSLEKQLQFFQDVSDRIEKESLDGPIVKQLERGGRAVVKMDWRENITVPLQTDLRKFRTYKGGSVRDLLRAMRNKKHHYRELPAEVRETLGSLPDDFVCYFTSRFPHLLAHTYRAMELCSHERLFQPYYFHEPPEPQPPVTPDALPSRGSGGSGGSTVVHSGYRHQVPSVQVFSRSESTQPLLDSEERPEDLQLVDHVDGGDGILPRQQYFKQNCSQHESSPDISHFERSKQVSSVNEEDFVRLKQQISDHISQSCGSGQMKMFQEVSAADAFGPGTEGQVERFETVGMEAATDEGMPKSYLPQTVRQGGYMPQGGSELSTSLYKKAGYLPQTVRQGGYMPQ
notes: also called pMG2C-ERN1cyt; gp130 fusion containing only the cytoplasmic portion of ERN1
Q: Does B4 bind (ERN1-Tyk2(C)-HA)?
A: Result: no binding
